Source: US20190270793A1 (Janssen / Centocor, published 2019)
Changes are numbered by the printed parent chain.

Experiments:
[1] = biological target: T1, 111 130 …; test: pepscan-based ELISA on the array of linear 20-mer Tau441 peptides
T1 construct: Linear 20-mer made on the solid support of the pepscan array; also called Tau441 peptide 111-130
T1 peptide: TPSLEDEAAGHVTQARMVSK
Experimental: (§1) The binding of antibodies (recombinantly expressed as IgG2a) to each of the synthesized peptides was tested in a pepscan-based ELISA. The peptide arrays were incubated with primary antibody solution (overnight at 4° C.). After washing, the peptide arrays were incubated with a 1/1000 dilution of an appropriate antibody peroxidase conjugate (SBA) for one hour at 25° C. After washing, the peroxidase substrate 2,2′-azino-di-3-ethylbenzthiazoline sulfonate (ABTS) and 20 μl/ml of 3 percent H2O2 were added. After one hour, the color development was measured. The color development was quantified with a charge coupled device (CCD)—camera and an image processing system.

[2] = biological target: T2, 107 126 …; test: as above
T2 construct: Linear 20-mer made on the solid support of the pepscan array; also called Tau441 peptide 107-126
T2 peptide: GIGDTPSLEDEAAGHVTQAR
Experimental: as §1

[3] = biological target: T3, 109 128 …; test: as above
T3 construct: Linear 20-mer made on the solid support of the pepscan array; also called Tau441 peptide 109-128
T3 peptide: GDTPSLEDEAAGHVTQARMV
Experimental: as §1

[4] = biological target: T4, 117 136 …; test: as above
T4 construct: Linear 20-mer made on the solid support of the pepscan array; also called Tau441 peptide 117-136
T4 peptide: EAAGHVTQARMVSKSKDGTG
Experimental: as §1

[5] = biological target: T5, 103 122 …; test: as above
T5 construct: Linear 20-mer made on the solid support of the pepscan array
T5 peptide: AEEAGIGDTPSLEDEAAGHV
Experimental: as §1

[6] = biological target: T6, 119 138 …; test: as above
T6 construct: Linear 20-mer made on the solid support of the pepscan array
T6 peptide: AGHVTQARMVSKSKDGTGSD
Experimental: as §1

[7] = biological target: T7, 105 124 …; test: as above
T7 construct: Linear 20-mer made on the solid support of the pepscan array; also called Tau441 peptide 105-124
T7 peptide: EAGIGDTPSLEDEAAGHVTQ
Experimental: as §1

[8] = biological target: T8, 115 134 …; test: as above
T8 construct: Linear 20-mer made on the solid support of the pepscan array; also called Tau441 peptide 115-134
T8 peptide: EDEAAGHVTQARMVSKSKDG
Experimental: as §1

[9] = biological target: T9, 121 140 …; test: as above
T9 construct: Linear 20-mer made on the solid support of the pepscan array; also called Tau441 peptide 121-140
T9 peptide: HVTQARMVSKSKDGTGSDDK
Experimental: as §1

[10] = biological target: T10, 113 132 …; test: as above
T10 construct: Linear 20-mer made on the solid support of the pepscan array; also called Tau441 peptide 113-132
T10 peptide: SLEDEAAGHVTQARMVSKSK
Experimental: as §1

[11] = biological target: T11, soluble tau (control tau; recombinant 2N4R tau, SEQ ID NO:31) (human, UniProt P10636 2-758); test: direct ELISA on 2N4R tau coated at 10 ng/mL, O.D. 450 nm
T11 construct: also called Sol-tau; recombinant WT tau
Experimental: (§2) Binding to recombinant WT (2N4R; SEQ ID NO:31) tau was analyzed by ELISA where full-length Tau protein (1 ng/mL or 10 ng/mL) was directly coated to the plate and incubated with different concentrations of either recombinantly- or hybridoma produced PT82 antibody (FIG. 2). After incubation with antibodies, plates were again washed and 50 μL per well of HRPO labelled anti-mouse antibody (GE Healthcare) (diluted 1:10000 in blocking buffer) was added. After another washing step detection was performed with “One step” TMB (Thermo Scientific) according to the manufacturers' instructions. Plates were analysed in EnVision® 2102 Multilabel Reader (Perkin Elmer, Waltham, Mass., USA). Binding curves were generated using GraphPad Prism7.0 software. […] No substantial difference has been observed between binding profiles of recombinant and hybridoma produced antibodies.

[12] = biological target: T12, PHF-tau (paired helical filament-tau), partially purified from postmortem cortex of an Alzheimer patient (human, UniProt P10636-8 2-441, limits assumed, hyperphosphorylated (sites not given)); test: SPR (ProteOn XPR36 or Biacore T200)
T12 construct: This is an aggregated, hyperphosphorylated brain-derived preparation, not a single defined chain

[13] = biological target: T11, soluble tau (control tau; recombinant …); test: direct ELISA on 2N4R tau coated at 1 ng/mL, O.D. 450 nm
Experimental: as §2

[14] = biological target: T11, soluble tau (control tau; recombinant …); test: SPR (ProteOn XPR36 or Biacore T200); central value of the cell
[15] = biological target: T11, soluble tau (control tau; recombinant …); test: ELISA on coated soluble tau, anti-human Fc:HRP, 5-fold dilutions from 5 ug/ml
Experimental: Colonies from this electroporation were picked for the ELISA screen and assessment of Fab expression. Briefly, Maxisorp 96 well plates were coated with soluble Tau protein. Fab colonies were grown in 2×YT media and Fab expression was induced with IPTG. ELISA plates were washed and Fab secreted into the E. coli media was added to each ELISA plate. Plates were washed and Anti-Fab′2:HRP (Jackson ImmunoResearch) was added to the ELISA plates. Plates were washed and chemiluminescent detection reagent was added and plates were read on a Perkin Elmer EnVision plate reader for luminescence.
Positive clones were sequenced in both VH and VL. Unique sequences were cloned into IgG gene expression constructs for expression and purification as full length IgG1 molecules. IgG constructs were transfected into CHO-Expi cells and IgG protein was purified using MabSelectSure resin. Antibodies were then tested in an ELISA for binding to soluble Tau, using anti-human Fc:HRP (Jackson ImmunoResearch), to detect IgG binding.
The ELISA was done as described for Fabs except that antibodies were tested at five 5-fold dilutions starting at 5 μg/mL in PGS and anti-human Fc:HRP (Jackson ImmunoResearch) was used to detect IgG binding.

T11 sequence (P10636 other isoform, or with tags, fused parts or gaps limits assumed): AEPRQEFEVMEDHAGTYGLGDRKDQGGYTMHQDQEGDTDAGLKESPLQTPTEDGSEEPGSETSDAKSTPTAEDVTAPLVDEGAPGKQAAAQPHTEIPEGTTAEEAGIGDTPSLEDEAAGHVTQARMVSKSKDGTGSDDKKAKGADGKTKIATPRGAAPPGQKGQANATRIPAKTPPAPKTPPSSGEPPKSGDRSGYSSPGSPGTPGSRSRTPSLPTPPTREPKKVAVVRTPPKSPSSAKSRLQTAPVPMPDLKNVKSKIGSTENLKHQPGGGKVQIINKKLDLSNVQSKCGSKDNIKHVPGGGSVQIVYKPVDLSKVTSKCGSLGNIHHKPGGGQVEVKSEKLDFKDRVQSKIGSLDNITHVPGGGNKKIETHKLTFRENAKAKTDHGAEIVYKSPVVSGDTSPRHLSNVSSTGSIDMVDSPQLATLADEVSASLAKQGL
T12 sequence (P10636 other isoform, or with tags, fused parts or gaps limits assumed): as above

B1: PT82 mAb, recombinantly expressed (mouse IgG2a/kappa) (antibody, V domains shown)
VH: EVKLEESGGGLVQPGGSMKLSCVASGFTFSNYWMNWIRQSPEKGLEWVAQIRLQSDNYATRYAESVKGRFTISRDESKTSVYLQMNNLRTEDTGIYYCTGGTTYWGQGTLVTVSA
VL: DIVMTQSQKFMSTSVGDRVSITCKASQNVGTAVAWYQQKPGQSPKLLIYSASIRYTGVPDRFTGSGSGTDFTLTINYMQSEDLADYFCQQFSSYPYTFGGGTKLEIK
notes: also called recombinant PT82; murine PT82
- pepscan ELISA signal (PT82) [1]: 2930
- pepscan ELISA signal (PT82) [2]: 2920
- pepscan ELISA signal (PT82) [3]: 2920
- pepscan ELISA signal (PT82) [4]: 2920
- pepscan ELISA signal (PT82) [5]: 68
- pepscan ELISA signal (PT82) [6]: 2910
- pepscan ELISA signal (PT82) [7]: 2900
- pepscan ELISA signal (PT82) [8]: 2920
- pepscan ELISA signal (PT82) [9]: 68
- pepscan ELISA signal (PT82) [10]: 2930
- EC50 (read off the curve) [11]: ~0.01 µg/mL
- Kd [12]: 2.85 nM
- EC50 (read off the curve) [13]: ~0.05 µg/mL

B2: PT82 from hybridoma supernatant (hybridoma-produced mouse monoclonal antibody) (antibody, V domains shown)
VH: B1 VH
VL: B1 VL
notes: This is the native hybridoma antibody; also called hybridoma produced PT82
- EC50 (read off the curve) [11]: ~0.004 µg/mL
- EC50 (read off the curve) [13]: ~0.02 µg/mL

B3: PT82 Fab (chimeric: mouse variable domains on human IgG1/kappa constant domains, His tag at the C-terminus of the heavy chain) (Fab, V domains shown)
VH: B1 VH
VL: B1 VL
notes: The Fab has mouse variable domains fused to human IgG1/kappa constant domains, with a His tag at the C-terminus of the heavy chain; also called Fab fragment of PT82
- Kd [12]: 5.01 nM
- Kd [14]: 1.84 nM

B4: PT1B779 (humanized PT82, full length IgG1) (antibody, V domains shown)
VH: EVQLVESGGGLVQPGGSLRLSCAASGFTFSNYWMNWIRQAPGKGLEWVGQIRLQDDNYATRYAASVKGRFTISRDDSKNSVYLQMNSLKTEDTAVYYCTGGTTYWGQGTLVTVSS
VL: DIQMTQSPSFLSASVGDRVTITCKASQNVGTKVAWYQQKPGKAPKLLIYSASIRYTGVPSRFSGSGSGTEFTLTISSMQPEDFATYYCQQFSSYPYTFGQGTKLEIK
- binding result [15]: binds

B5: PT1B781 (humanized PT82, full length IgG1) (antibody, V domains shown)
VH: B4 VH with D55R
VL: B4 VL
- binding result [15]: binds

B6: PT1B782 (humanized PT82, full length IgG1) (antibody, V domains shown)
VH: B4 VH with D55Y
VL: B4 VL with M4L
- binding result [15]: binds

B7: PT1B778 (humanized PT82, full length IgG1) (antibody, V domains shown)
VH: B4 VH with D55S, A59V
VL: B4 VL with K32R
- binding result [15]: binds

B8: PT1B780 (humanized PT82, full length IgG1) (antibody, V domains shown)
VH: B4 VH with D55S, V81L
VL: B4 VL with M78L
- binding result [15]: binds
